± gives the standard deviation of the averaged measurements.
Experiments:
[1] = test system: hTERT-HMEC; experiment: percentage of EdU-negative (G0-arrested) nuclei per well, 72 h; higher = more G0 arrest; conditions: reference: sequence is the full UniProt precursor, the tested protein was the secreted form or ectodomain
[2] = test system: MCF7; experiment: as above; conditions: reference: sequence is the full UniProt precursor, the tested protein was the secreted form or ectodomain
[3] = protein concentration 0.0305714 µM
[4] = protein concentration 0.305714 µM
[5] = protein concentration 0.0225 µM
[6] = protein concentration 0.03125 µM
[7] = protein concentration 0.3125 µM
[8] = protein concentration 0.0283425 µM
[9] = protein concentration 0.283425 µM
[10] = protein concentration 0.01375 µM
[11] = protein concentration 0.1375 µM
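Further: secreted proteins added to cultured cells, EdU pulse at the end, nuclei found by Hoechst imaging, EdU status from nuclear versus surrounding ring intensity ratio, PBS as neutral control.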

## MSDSKEPRLQQLGLLEEEQLRGLGFRQTRGYKSLAGCLGHGPLVLQLLSFTLLAGLLVQVSKVPSSISQEQSRQDAIYQNLTQLKAAVGELSEKSKLQEIYQELTQLKAAVGELPEKSKLQEIYQELTRLKAAVGELPEKSKLQEIYQELTWLKAAVGELPEKSKMQEIYQELTRLKAAVGELPEKSKQQEIYQELTRLKAAVGELPEKSKQQEIYQELTRLKAAVGELPEKSKQQEIYQELTQLKAAVERLCHPCPWEWTFFQGNCYFMSNSQRNWHDSITACKEVGAQLVVIKSAEEQNFLQLQSSRSNRFTWMGLSDLNQEGTWQWVDGSPLLPSFKQYWNRGEPNNVGEEDCAEFSGNGWNDDKCNLAKFWICKKSAASCSRDEEQFLSPAPATPNPPPA [Q9NNX6]
[1]; [3]
  percentage of EdU-negative: 4.977 ± 0.027%
[1]; [4]
  percentage of EdU-negative: 17 ± 4.1%
[2]; [3]
  percentage of EdU-negative: 26.2 ± 1%
[2]; [4]
  percentage of EdU-negative: 26.5 ± 0.49%

## MSDSKEPRVQQLGLLEEDPTTSGIRLFPRDFQFQQIHGHKSSTGCLGHGALVLQLLSFMLLAGVLVAILVQVSKVPSSLSQEQSEQDAIYQNLTQLKAAVGELSEKSKLQEIYQELTQLKAAVGELPEKSKLQEIYQELTRLKAAVGELPEKSKLQEIYQELTRLKAAVGELPEKSKLQEIYQELTRLKAAVGELPEKSKLQEIYQELTELKAAVGELPEKSKLQEIYQELTQLKAAVGELPDQSKQQQIYQELTDLKTAFERLCRHCPKDWTFFQGNCYFMSNSQRNWHDSVTACQEVRAQLVVIKTAEEQNFLQLQTSRSNRFSWMGLSDLNQEGTWQWVDGSPLSPSFQRYWNSGEPNNSGNEDCAEFSGSGWNDNRCDVDNYWICKKPAACFRDE [Q9H2X3]
[1]; [5]
  percentage of EdU-negative: 5.68 ± 0.32%
[1]; protein concentration 0.225 µM
  percentage of EdU-negative: 6.17 ± 0.82%
[2]; [5]
  percentage of EdU-negative: 27 ± 3.5%
[2]; protein concentration 0.225 µM
  percentage of EdU-negative: 23.8 ± 2.6%

## MSEEVTYADLQFQNSSEMEKIPEIGKFGEKAPPAPSHVWRPAALFLTLLCLLLLIGLGVLASMFHVTLKIEMKKMNKLQNISEELQRNISLQLMSNMNISNKIRNLSTTLQTIATKLCRELYSKEQEHKCKPCPRRWIWHKDSCYFLSDDVQTWQESKMACAAQNASLLKINNKNALEFIKSQSRSYDYWLGLSPEEDSTRGMRVDNIINSSAWVIRNAPDLNNMYCGYINRLYVQYYHCTYKKRMICEKMANPVQLGSTYFREA [Q5QGZ9]
[1]; [5]
  percentage of EdU-negative: 4.07 ± 0.067%
[1]; protein concentration 0.225 µM
  percentage of EdU-negative: 4.99 ± 0.84%
[2]; [5]
  percentage of EdU-negative: 25.2 ± 1.6%
[2]; protein concentration 0.225 µM
  percentage of EdU-negative: 28.95 ± 0.13%

## MSERKEGRGKGKGKKKERGSGKKPESAAGSQSPALPPRLKEMKSQESAAGSKLVLRCETSSEYSSLRFKWFKNGNELNRKNKPQNIKIQKKPGKSELRINKASLADSGEYMCKVISKLGNDSASANITIVESNEIITGMPASTEGAYVSSESPIRISVSTEGANTSSSTSTSTTGTSHLVKCAEKEKTFCVNGGECFMVKDLSNPSRYLCKCQPGFTGARCTENVPMKVQNQEKAEELYQKRVLTITGICIALLVVGIMCVVAYCKTKKQRKKLHDRLRQSLRSERNNMMNIANGPHHPNPPPENVQLVNQYVSKNVISSEHIVEREAETSFSTSHYTSTAHHSTTVTQTPSHSWSNGHTESILSESHSVIVMSSVENSRHSSPTGGPRGRLNGTGGPRECNSFLRHARETPDSYRDSPHSERYVSAMTTPARMSPVDFHTPSSPKSPPSEMSPPVSSMTVSMPSMAVSPFMEEERPLLLVTPPRLREKKFDHHPQQFSSFHHNPAHDSNSLPASPLRIVEDEEYETTQEYEPAQEPVKKLANSRRAKRTKPNGHIANRLEVDSNTSSQSSNSESETEDERVGEDTPFLGIQNPLAASLEATPAFRLADSRTNPAGRFSTQEEIQARLSSVIANQDPIAV
[1]; [6]
  percentage of EdU-negative: 4.23 ± 0.16%
[1]; [7]
  percentage of EdU-negative: 4.694 ± 0.041%
[2]; [6]
  percentage of EdU-negative: 23.8 ± 3.8%
[2]; [7]
  percentage of EdU-negative: 24.8 ± 0.83%

## MSEVPVARVWLVLLLLTVQVGVTAGAPWQCAPCSAEKLALCPPVSASCSEVTRSAGCGCCPMCALPLGAACGVATARCARGLSCRALPGEQQPLHALTRGQGACVQESDASAPHAAEAGSPESPESTEITEEELLDNFHLMAPSEEDHSILWDAISTYDGSKALHVTNIKKWKEPCRIELYRVVESLAKAQETSGEEISKFYLPNCNKNGFYHSRQCETSMDGEAGLCWCVYPWNGKRIPGSPEIRGDPNCQIYFNVQN
[1]; [8]
  percentage of EdU-negative: 5.41 ± 0.56%
[1]; [9]
  percentage of EdU-negative: 9.21 ± 1.1%
[2]; [8]
  percentage of EdU-negative: 24.4 ± 0.48%
[2]; [9]
  percentage of EdU-negative: 29.6 ± 4%

## MSFPCKFVASFLLIFNVSSKGAVSKEITNALETWGALGQDINLDIPSFQMSDDIDDIKWEKTSDKKKIAQFRKEKETFKEKDTYKLFKNGTLKIKHLKTDDQDIYKVSIYDTKGKNVLEKIFDLKIQERVSKPKISWTCINTTLTCEVMNGTDPELNLYQDGKHLKLSQRVITHKWTTSLSAKFKCTAGNKVSKESSVEPVSCPEKGLDIYLIIGICGGGSLLMVFVALLVFYITKRKKQRSRRNDEELETRAHRVATEERGRKPHQIPASTPQNPATSQHPPPPPGHRSQAPSHRPPPPGHRVQHQPQKRPPAPSGTQVHQQKGPPLPRPRVQPKPPHGAAENSLSPSSN
[1]; [5]
  percentage of EdU-negative: 5.27 ± 1.3%
[1]; protein concentration 0.225 µM
  percentage of EdU-negative: 5.92 ± 0.1%
[2]; [5]
  percentage of EdU-negative: 24.6 ± 0.84%
[2]; protein concentration 0.225 µM
  percentage of EdU-negative: 26.8 ± 0.55%

## MSGAPTAGAALMLCAATAVLLSAQGGPVQSKSPRFASWDEMNVLAHGLLQLGQGLREHAERTRSQLSALERRLSACGSACQGTEGSTDLPLAPESRVDPEVLHSLQTQLKAQNSRIQQLFHKVAQQQRHLEKQHLRIQHLQSQFGLLDHKHLDHEVAKPARRKRLPEMAQPVDPAHNVSRLHRLPRDCQELFQVGERQSGLFEIQPQGSPPFLVNCKMTSDGGWTVIQRRHDGSVDFNRPWEAYKAGFGDPHGEFWLGLEKVHSITGDRNSRLAVQLRDWDGNAELLQFSVHLGGEDTAYSLQLTAPVAGQLGATTVPPSGLSVPFSTWDQDHDLRRDKNCAKSLSGGWWFGTCSHSNLNGQYFRSIPQQRQKLKKGIFWKTWRGRYYPLQATTMLIQPMAAEAAS [Q9BY76]
[1]; [10]
  percentage of EdU-negative: 5.28 ± 0.74%
[1]; [11]
  percentage of EdU-negative: 6.14 ± 0.59%
[2]; [10]
  percentage of EdU-negative: 23.9 ± 1.8%
[2]; [11]
  percentage of EdU-negative: 27.4 ± 1.9%
